Test results from patent US20240101647A1 (published 2024).

Biological target: monomeric human Fc-fused SARS-CoV-2_RBD-SD1 (UniProt P0DTC2 319-591)
Assay: BLI

B1: VHH3.89 (VHH)
VHH: QVQLQESGGGLVQPGGSLRLSCAASGFTLDYYAIGWFREVPGKEREGLSRIDSSDGSTYYADSVKGRFTISRDNTKNIVYLQMNNLKPEDTAVYYCATDPIIQGRNWYWTGWGQGTQVTVSS
Binder B1 has a koff of 0.0002 s⁻¹.
